Data: publication PMC5389673 (Nucleic Acids Research, 2016)

Biological target: the molecule itself
Assay: crystal structure

B1: VapB1 antitoxin from Caulobacter crescentus CB15, full length, seleno-methionine substituted (natural protein, UniProt Q9AC34 1-79, looked up)
chain: MARATGKTFRSGNSEAVRLPRDLAFGADVELTLIRSGDVLTIYPSKGSIADLVATLNQMPRPDSVEIRDEDLFPERPGL
modifications: seleno-methionine in place of methionine
  stoichiometry N: 2

B2: VapC1 toxin from Caulobacter crescentus CB15, full length, seleno-methionine substituted (natural protein)
chain: MAYVLDTNVAIHLRDGDPEVTTRVTALNGAILLSIISRVELEGGVYREAAQAGLRRSRLDVMLKVLPVLDFDGAAADEYRRIVESAGYSRRKVVDRMIAAQALAHRATFVTFNADDFRDIPGLSLLAW
modifications: seleno-methionine in place of methionine
  stoichiometry N: 2
